Consider three substances from publication PMC4650695.

Test [1] addresses ICP27Δ189 (HSV-1 ICP27 residues 189-512) (Herpes simplex virus 1 (HSV-1)) (UniProt P10238). Briefly: SEC-MALS; 0.5 mL at 1 mg/mL on Superdex 200 10/300GL, 0.75 mL/min in gel filtration buffer (20 mM Tris, 150 mM NaCl, 50 mM L-Arg, 50 mM L-Glu, 50 mM L-Pro, 0.1 mM TCEP, 10 μM ZnCl2, pH 8.5). Background: Size exclusion chromatography separates by hydrodynamic size, large species first.

The target is the same in test [2]. In words: AUC; sedimentation velocity, 1 mg/mL in 20 mM HEPES pH 7.4, 150 mM NaCl, 40000 RPM, 20 °C.
The target in test [3] is ICP27Δ215 (HSV-1 ICP27 residues 215-512) (Herpes simplex virus 1 (HSV-1)) (UniProt P10238). Briefly: SEC-MALS; 0.5 mL at 1 mg/mL on Superdex 200 10/300GL, 0.75 mL/min in gel filtration buffer (20 mM Tris, 150 mM NaCl, 50 mM L-Arg, 50 mM L-Glu, 50 mM L-Pro, 0.1 mM TCEP, 10 μM ZnCl2, pH 8.5).
The target is the same in test [4]. In words: AUC; sedimentation velocity, 1 mg/mL in 20 mM HEPES pH 7.4, 150 mM NaCl, 40000 RPM, 20 °C.
For test [5], the target named is ICP27Δ241 (HSV-1 ICP27 C-terminal residues 241-512) (Herpes simplex virus 1 (HSV-1)) (UniProt P10238). In words: SEC-MALS; 0.5 mL at 1 mg/mL on Superdex 200 10/300GL, 0.75 mL/min in gel filtration buffer (20 mM Tris, 150 mM NaCl, 50 mM L-Arg, 50 mM L-Glu, 50 mM L-Pro, 0.1 mM TCEP, 10 μM ZnCl2, pH 8.5).
The target is the same in test [6]. Briefly: AUC; sedimentation velocity, 1 mg/mL in 20 mM HEPES pH 7.4, 150 mM NaCl, 40000 RPM, 20 °C.

Consider “ICP27Δ189 (HSV-1 ICP27 residues 189-512) (from UniProt P10238 189-512) (domain or fragment)”, for which the stoichiometry N in test [1] and in test [2] was 2 in each case.
Consider “ICP27Δ215 (HSV-1 ICP27 residues 215-512) (from UniProt P10238 215-512) (domain or fragment)”, for which the stoichiometry N in test [3] and in test [4] was 2 in each case.
As to “ICP27Δ241 (HSV-1 ICP27 C-terminal residues 241-512) (from UniProt P10238 241-512) (domain or fragment)”, the stoichiometry N in test [5] and in test [6] was 2 in each case.

Broadly, the stoichiometry N is a count of units in the complex or per binding partner.
